Reference: patent US20220185894A1 (F STAR THERAPEUTICS, published 2022)
Residue numbers refer to the chain shown, from its start.

T1: human FcγRIIa (R&D Systems, 1330-CD) (human, UniProt P12318 36-218, limits assumed)
T1 construct: Bought recombinant protein
T1 sequence (looked up): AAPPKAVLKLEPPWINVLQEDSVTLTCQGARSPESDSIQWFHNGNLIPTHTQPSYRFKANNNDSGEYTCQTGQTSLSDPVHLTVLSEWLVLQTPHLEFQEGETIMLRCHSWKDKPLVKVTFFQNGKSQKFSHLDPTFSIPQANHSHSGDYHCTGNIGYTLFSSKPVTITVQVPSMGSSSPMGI

T2: human FcγRIIb/c (R&D Systems, 1875-CD) (human, UniProt P31994 46-217)
T2 construct: Bought recombinant protein
T2 sequence (looked up): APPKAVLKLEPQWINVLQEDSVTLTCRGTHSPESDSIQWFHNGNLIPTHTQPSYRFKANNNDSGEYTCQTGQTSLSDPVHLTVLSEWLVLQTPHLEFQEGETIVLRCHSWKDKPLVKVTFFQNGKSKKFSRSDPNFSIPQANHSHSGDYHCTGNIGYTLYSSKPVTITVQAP

T3: cynomolgus LAG-3 expressed on cells (cynomolgus monkey, UniProt P18627 24-525 (human entry))
T3 construct: also called cLAG-3; cyno LAG-3
T3 chain: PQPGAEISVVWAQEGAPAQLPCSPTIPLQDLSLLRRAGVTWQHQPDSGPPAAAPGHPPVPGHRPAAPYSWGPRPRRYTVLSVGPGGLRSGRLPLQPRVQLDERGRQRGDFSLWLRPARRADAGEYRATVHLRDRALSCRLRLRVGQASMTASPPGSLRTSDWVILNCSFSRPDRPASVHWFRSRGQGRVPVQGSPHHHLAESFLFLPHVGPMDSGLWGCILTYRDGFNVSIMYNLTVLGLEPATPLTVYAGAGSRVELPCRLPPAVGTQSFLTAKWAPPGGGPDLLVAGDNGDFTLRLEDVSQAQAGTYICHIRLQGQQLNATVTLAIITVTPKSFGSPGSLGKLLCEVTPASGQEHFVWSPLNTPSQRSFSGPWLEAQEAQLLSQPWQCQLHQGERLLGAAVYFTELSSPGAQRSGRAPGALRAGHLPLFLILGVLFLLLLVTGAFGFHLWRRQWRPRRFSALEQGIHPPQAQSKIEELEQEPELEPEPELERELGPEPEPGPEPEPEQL

T4: human LAG-3 expressed on cells (human, UniProt P18627 23-525)
T4 construct: also called hLAG-3; DO11.10 hLAG-3
T4 sequence: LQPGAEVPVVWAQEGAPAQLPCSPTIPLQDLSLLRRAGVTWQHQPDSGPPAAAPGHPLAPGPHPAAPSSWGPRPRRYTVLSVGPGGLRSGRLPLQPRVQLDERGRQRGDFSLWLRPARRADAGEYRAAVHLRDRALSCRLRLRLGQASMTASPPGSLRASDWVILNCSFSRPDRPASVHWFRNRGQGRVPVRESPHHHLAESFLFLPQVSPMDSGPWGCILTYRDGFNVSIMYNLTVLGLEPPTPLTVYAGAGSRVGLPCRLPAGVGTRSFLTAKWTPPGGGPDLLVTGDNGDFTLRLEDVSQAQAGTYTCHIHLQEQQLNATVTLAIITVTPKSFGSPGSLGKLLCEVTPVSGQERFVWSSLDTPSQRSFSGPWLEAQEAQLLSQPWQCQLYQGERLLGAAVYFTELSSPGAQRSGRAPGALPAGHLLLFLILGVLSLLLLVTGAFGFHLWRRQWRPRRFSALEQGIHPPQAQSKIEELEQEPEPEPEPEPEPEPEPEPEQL

T5: recombinant Fc-tagged human LAG-3 (R&D Systems, 2319-L3-050) (human, UniProt P18627 23-450)
T5 construct: Bought protein; also called LAG-3 Fc; human LAG-3-Fc; not shown: Fc tag of the bought fusion protein
T5 sequence: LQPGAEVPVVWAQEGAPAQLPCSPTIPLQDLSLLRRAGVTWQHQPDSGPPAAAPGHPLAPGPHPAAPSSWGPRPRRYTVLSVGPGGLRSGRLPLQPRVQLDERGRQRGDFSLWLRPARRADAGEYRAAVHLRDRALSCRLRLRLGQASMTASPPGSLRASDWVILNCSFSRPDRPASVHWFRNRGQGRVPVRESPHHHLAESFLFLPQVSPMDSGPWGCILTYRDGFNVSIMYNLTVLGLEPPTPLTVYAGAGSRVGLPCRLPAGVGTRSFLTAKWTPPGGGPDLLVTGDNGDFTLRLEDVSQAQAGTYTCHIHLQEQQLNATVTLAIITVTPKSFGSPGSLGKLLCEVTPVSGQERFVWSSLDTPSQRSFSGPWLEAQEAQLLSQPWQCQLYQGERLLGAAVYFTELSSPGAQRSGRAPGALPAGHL

B1: anti-human LAG-3/FITC mock mAb2 FS18-7-78/4420 comprising LALA mutation (bispecific antibody, human IgG1, kappa, L234A L235A)
heavy: EVKLDETGGGLVQPGRPMKLSCVASGFTFSDYWMNWVRQSPEKGLEWVAQIRNKPYNYETYYSDSVKGRFTISRDDSKSSVYLQMNNLRVEDMGIYYCTGSYYGMDYWGQGTSVTVSSASTKGPSVFPLAPSSKSTSGGTAALGCLVKDYFPEPVTVSWNSGALTSGVHTFPAVLQSSGLYSLSSVVTVPSSSLGTQTYICNVNHKPSNTKVDKKVEPKSCDKTHTCPPCPAPEAAGGPSVFLFPPKPKDTLMISRTPEVTCVVVDVSHEDPEVKFNWYVDGVEVHNAKTKPREEQYNSTYRVVSVLTVLHQDWLNGKEYKCKVSNKALPAPIEKTISKAKGQPREPQVYTLPPSWDEPWGEDVSLTCLVKGFYPSDIAVEWESNGYKEENYKTTPPVLDSDGSFFLYSKLTVPYDRWVWPDEFSCSVMHEALHNHYTQKSLSLSPG
light: DVVMTQTPLSLPVSLGDQASISCRSSQSLVHSNGNTYLRWYLQKPGQSPKVLIYKVSNRFSGVPDRFSGSGSGTDFTLKISRVEAEDLGVYFCSQSTHVPWTFGGGTKLEIKRTVAAPSVFIFPPSDEQLKSGTASVVCLLNNFYPREAKVQWKVDNALQSGNSQESVTEQDSKDSTYSLSSTLTLSKADYEKHKVYACEVTHQGLSSPVTKSFNRGEC
notes: also called FS18-7-78/4420LALA; FS18-7-78 in mock mAb2 format
B2: anti-human LAG-3/PD-L1 mAb2 FS18-7-62/84G09 with LALA mutation (bispecific antibody, human IgG1, kappa, L234A L235A)
heavy: EVQLVESGGGLVQPGRSLRLSCAASGFTFDDYAMHWVRQTPGKGLEWVSGISWKSNIIGYADSVKGRFTISRDNAKNSLYLQMNSLRAEDTALYYCARDITGSGSYGWFDPWGQGTLVTVSSASTKGPSVFPLAPSSKSTSGGTAALGCLVKDYFPEPVTVSWNSGALTSGVHTFPAVLQSSGLYSLSSVVTVPSSSLGTQTYICNVNHKPSNTKVDKKVEPKSCDKTHTCPPCPAPEAAGGPSVFLFPPKPKDTLMISRTPEVTCVVVDVSHEDPEVKFNWYVDGVEVHNAKTKPREEQYNSTYRVVSVLTVLHQDWLNGKEYKCKVSNKALPAPIEKTISKAKGQPREPQVYTLPPSWDEPWGEDVSLTCLVKGFYPSDIAVEWESNGIPEWNYKTTPPVLDSDGSFFLYSKLTVPYDRWVWPDEFSCSVMHEALHNHYTQKSLSLSPG
light: DIQMTQSPSSLSASVGDRVTITCRASQSISSYLNWYQQKPGKAPKPLIYVASSLQSGVPSSFSGSGSGTDFTLTISSLQPEDFATYYCQQSYSNPITFGQGTRLEIKRTVAAPSVFIFPPSDEQLKSGTASVVCLLNNFYPREAKVQWKVDNALQSGNSQESVTEQDSKDSTYSLSSTLTLSKADYEKHKVYACEVTHQGLSSPVTKSFNRGEC
notes: also called FS18-7-62/84G09LALA; F518-7-62/84G09LALA
B3: anti-human LAG-3/PD-L1 mAb2 FS18-7-78/84G09 with LALA mutation (bispecific antibody, human IgG1, kappa, L234A L235A)
heavy: B2 heavy with I391Y, P392K, W394E
light: B2 light
notes: also called FS18-7-78/84G09 LALA; FS18-7-78/84G09LALA

Columns and labels:
[1] = molecular target: T6, human FcγRI (R&D Systems, 1257-FC) (human, UniProt P12314 16-288); test: SPR, Biacore T200; FcγR immobilised, 200 µg/ml injected
T6 construct: Bought recombinant protein
Method: (§1) The introduction of the LALA mutation in the CH2 domain of human IgG1 is known to reduce Fc γ receptor binding (Bruhns, P., et al. (2009); and Xu, D. et al. (2000)). […] The human FcγR binding assay was performed on a Biacore T200 instrument (GE Healthcare) using the Fcabs in the mock mAb² format. […] For each immobilized chip a flow cell was left blank for background subtraction. FcγR were immobilized using a concentration of 5 μg/ml in sodium acetate pH5 (ForteBio, 18-1069) and injected at a flow rate of 10 μl/min in 15 second cycles until the required immobilization level was reached.
(§2) The flow cells were regenerated by injecting 10 mM sodium hydroxide (VWR, 28244.262) at a flow rate of 100 μl/min for 30 seconds. The data analysis was performed with BiaEvaluation software version 3.2 RC1 by double referencing against the blank flow cell (without immobilized FcγR) and subtracting a buffer cycle from test mAb².

[2] = molecular target: T1, human FcγRIIa (R&D Systems, 1330-CD); test: SPR, Biacore T200; FcγR immobilised, 500 µg/ml injected
Method: as §1, §2

[3] = molecular target: T2, human FcγRIIb/c (R&D Systems, 1875-CD); test: as above
Method: as §1, §2

[4] = molecular target: T3, cynomolgus LAG-3 expressed on cells; test: flow cytometry on DO11.10 cells expressing cynomolgus LAG-3
Method: DO11.10:LAG-3 cell suspensions were prepared in PBS+2% BSA (Sigma, A7906) and seeded at […] with 50 μl/well in V-bottomed 96-well plates (Costar, 3897). […] The plates were washed and 100 μl/well of secondary antibody (anti-human Fc-488 antibody, Jackson ImmunoResearch, 109-546-098) diluted 1:1000 in PBS+2% BSA was then added and incubated for 30 mins at 4° C. in the dark. The plates were washed and resuspended in 100 μl of PBS containing DAPI (Biotium, 40043) at […]. The plates were read using Canto II flow cytometer (BD Bioscience). The dead cells were excluded and the fluorescence in the FITC channel (488 nm/530/30) was measured. The data was fit using log (agonist) vs response in GraphPad Prism Software.

[5] = molecular target: human PD-L1 expressed on cells (human, UniProt Q9NZQ7 19-290); test: cell-based or functional assay
[6] = molecular target: T4, human LAG-3 expressed on cells; test: flow cytometry on HEK cells expressing human LAG-3
Method: (§3) The affinity of the mAb² (all containing the LALA mutation) for cell expressed human or cynomolgus LAG-3 was determined using flow cytometry. HEK cells expressing human or cynomolgus LAG-3 grown in DMEM (Life Technologies, 61965-026) containing 10% FBS (Life Technologies, 10270-1-6), 100 μg/ml Hygromycin B (Melford Laboratories Ltd, Z2475), 15 μg/ml Blasticidin (Melford Laboratories Ltd, B1105) and 1 μg/ml Doxycyclin (Sigma, D9891) were detached from tissue culture flasks using cell dissociation buffer (Life Technologies, 13151-014) and seeded in V-bottom 96-well plates (Costar, 3897) at 2×10⁵ cells/well. The plates were centrifuged at 1500 rpm for 3 min at 4° C. to pellet the cells. A dilution series of the mAb² (or control mAb) were incubated with the cells in a 100 μl volume for 1 h at 4° C. The plates were washed and secondary antibody (Anti-human Fc-488, Jackson ImmunoResearch, 109-546-098) was diluted 1:1000 in PBS and 100 μl was added to the cells for 30 min at 4° C. (plates were kept in the dark). The plates were washed and then cells were resuspended in 100 μl PBS containing 1 μg/ml DAPI (Biotium, 40043). The plates were read using Canto II flow cytometer (BD Bioscience). Dead cells were excluded and the fluorescence in the FITC channel (488 nm/530/30) was measured. The data was fit using log (agonist) vs response in GraphPad Prism Software. The plates were read on a BD FACSCanto II cytometer (BD Biosciences) and the data analysed using FlowJo.

[7] = molecular target: T3, cynomolgus LAG-3 expressed on cells; test: flow cytometry on HEK cells expressing cynomolgus LAG-3
Method: as §3

[8] = molecular target: T7, human PD-L1 Fc (R&D Systems, 156-B7) (human, UniProt Q9NZQ7 19-239); test: SPR, BIAcore T200; mAb2 captured on Protein L, PD-L1 Fc injected
T7 construct: Bought protein; not shown: Fc tag of the bought fusion protein
Method: (§4) Protein L (Thermo, 21189) was immobilized on flow cells 1 and 2 of a Series S CM5 chip (GE Healthcare, BR-1005-30) by amine coupling (GE Healthcare, BR-1000-50) to a surface density of 2000 RU by following the manufacturer's instructions for the BIAcore T200 instrument. […] The association time was 3 min and the dissociation time was 6 min. Running buffer was HBS-P (GE Healthcare, BR-1003-68). Both flow cells were regenerated by injecting 10 mM sodium hydroxide (NaOH) at a flow rate of 100 μl/min for 20 seconds. The data were analysed by double referencing against the blank flow cell.
(§5) The binding kinetics were fit with a 1:1 Langmuir model to generate binding association (kₐ) and dissociation (kd) rates. Equilibrium binding constants (KD) were calculated by dividing the dissociation rate by the association rate for each sample. Data analysis was performed with BiaEvaluation software version 3.2.

[9] = molecular target: T5, recombinant Fc-tagged human LAG-3 (R&D …); test: SPR, BIAcore T200; mAb2 captured on Protein L, human LAG-3 Fc injected
Method: as §4, §5

T7 sequence (Q9NZQ7 19-239 limits assumed): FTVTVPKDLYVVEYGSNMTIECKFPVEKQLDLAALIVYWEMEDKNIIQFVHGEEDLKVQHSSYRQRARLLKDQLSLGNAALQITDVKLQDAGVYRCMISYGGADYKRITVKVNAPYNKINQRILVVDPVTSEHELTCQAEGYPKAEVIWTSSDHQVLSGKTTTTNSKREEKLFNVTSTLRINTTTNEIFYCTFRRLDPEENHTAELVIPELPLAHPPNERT
Chain of human PD-L1 expressed on cells (Q9NZQ7 19-290 limits assumed): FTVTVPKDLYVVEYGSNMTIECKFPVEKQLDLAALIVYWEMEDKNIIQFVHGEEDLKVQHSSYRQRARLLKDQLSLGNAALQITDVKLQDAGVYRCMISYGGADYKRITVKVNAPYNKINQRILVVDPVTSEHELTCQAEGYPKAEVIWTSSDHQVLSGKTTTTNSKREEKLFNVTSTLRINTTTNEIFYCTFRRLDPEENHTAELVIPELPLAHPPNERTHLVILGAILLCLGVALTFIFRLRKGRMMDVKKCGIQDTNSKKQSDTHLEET
T6 sequence (P12314 16-288 limits assumed): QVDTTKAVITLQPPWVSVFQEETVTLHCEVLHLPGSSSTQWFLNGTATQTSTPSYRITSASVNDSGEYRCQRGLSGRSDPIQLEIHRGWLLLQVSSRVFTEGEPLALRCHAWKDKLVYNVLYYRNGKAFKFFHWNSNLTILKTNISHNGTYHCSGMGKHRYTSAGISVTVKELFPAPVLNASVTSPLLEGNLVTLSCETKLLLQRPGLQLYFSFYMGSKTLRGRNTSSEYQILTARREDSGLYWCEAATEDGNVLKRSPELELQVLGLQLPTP

| Binder | binding response at end of association (RU) [1] [RU] | binding response at end of association (RU) [2] [RU] | binding response at end of association (RU) [3] [RU] | EC50 [4] [nM] | Maximal IL2 release calculated as % ctrl (84G09 + 25F7) [5] [%] | EC50 [6] [nM] | EC50 [7] [nM] | fold better binding (EC50) than control antibody 25F7 [7] [fold] | Kd [8] [nM] | koff [8] [s⁻¹] | kon [8] [M⁻¹ s⁻¹] | Kd [9] [nM] | koff [9] [s⁻¹] | kon [9] [M⁻¹ s⁻¹] |
| --- | --- | --- | --- | --- | --- | --- | --- | --- | --- | --- | --- | --- | --- | --- |
| B1 | -0.3 | -10.7 | -9.2 | 0.5 |  |  |  |  |  |  |  |  |  |  |
| B2 |  |  |  |  | 59 | 4.08 | 26.4 | ≥ 2 | 1.3 | 0.00022 | 170000 | 0.036 | 0.0002 | 5.4e+06 |
| B3 |  |  |  |  | 64.4 | 2.53 | 24.8 | ≥ 2 | 1 | 0.0001 | 100000 | 0.029 | 0.00014 | 4.8e+06 |
